Among the data in paper PMC7069074 are binding values, retold here.

This series addresses T1, ERα (purified) (UniProt P03372).
T1 sequence: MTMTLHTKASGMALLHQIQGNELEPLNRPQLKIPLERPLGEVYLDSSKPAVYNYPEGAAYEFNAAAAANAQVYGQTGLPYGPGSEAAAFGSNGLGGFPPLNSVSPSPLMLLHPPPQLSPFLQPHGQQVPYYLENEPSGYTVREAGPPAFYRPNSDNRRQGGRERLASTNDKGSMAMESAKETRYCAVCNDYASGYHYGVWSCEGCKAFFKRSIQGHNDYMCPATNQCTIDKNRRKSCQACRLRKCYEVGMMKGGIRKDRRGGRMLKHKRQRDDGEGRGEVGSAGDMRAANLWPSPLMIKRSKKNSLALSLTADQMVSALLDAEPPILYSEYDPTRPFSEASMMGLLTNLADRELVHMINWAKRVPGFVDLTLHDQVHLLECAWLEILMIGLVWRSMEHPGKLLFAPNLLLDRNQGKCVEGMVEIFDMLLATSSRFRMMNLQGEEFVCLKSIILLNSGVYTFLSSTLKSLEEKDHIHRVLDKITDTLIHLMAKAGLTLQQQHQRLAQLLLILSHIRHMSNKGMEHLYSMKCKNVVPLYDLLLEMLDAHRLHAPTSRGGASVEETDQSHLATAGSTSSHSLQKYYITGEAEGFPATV
The series can be described thus: EMSA (1% agarose, ethidium bromide). The settings on record: EMSA: 0.1 M KCl, 1 mM DTT, 1 mM MgCl2, 10 mM HEPES pH 7.6, 37 °C, 30 min; pull-down: lysate in 5 mM PIPES, 85 mM KCl, 0.5% NP-40, 2 mM PMSF, 4 °C overnight …. (In general: In EMSA bound probe runs differently from free probe, usually more slowly.)

“AACGGAGTGTAGTCGGCTGACCCCTAGCATAGAGCAGTGCTGTTGGCTACTAACCACACCTCTCTACCTCTTTCTTACTCTAATATTACCCACCACAACAGCCAGAAAGTTCTTTTGAGAACATCTATCTGATCATGACACTGTCTTACTTAAAATCTTCCAGTGACTACTATTACCCTTAGGGTAGTCCAGATTCCATAATGTGGTTTACTGGACTCTATGACTTCTAAGAGAAGTCTTAGAGT (double strand) [YB-1 promoter]”: the binding result is on record as “binds”.
